Target: Snail protein (SNAI1/Snail, expressed as GST fusion in E. coli, GST moiety cleaved with thrombin), O95863
Sequence (O95863 whole entry, the tested form may be a part): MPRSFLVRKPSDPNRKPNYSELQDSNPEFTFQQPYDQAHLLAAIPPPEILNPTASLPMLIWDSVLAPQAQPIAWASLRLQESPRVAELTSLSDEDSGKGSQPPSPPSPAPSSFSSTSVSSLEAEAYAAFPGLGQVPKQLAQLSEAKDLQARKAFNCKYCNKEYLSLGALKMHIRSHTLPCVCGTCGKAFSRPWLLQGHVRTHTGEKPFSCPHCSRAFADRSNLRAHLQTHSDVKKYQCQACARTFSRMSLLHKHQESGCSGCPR

B1: recombinant Akt1 (ProQinase GmbH) (protein)
chain: VADGLKKQEEEEMDFRSGSPSDNSGAEEMEVSLAKPKHRVTMNEFEYLKLLGKGTFGKVILVKEKATGRYYAMKILKKEVIVAKDEVAHTLTENRVLQNSRHPFLTALKYSFQTHDRLCFVMEYANGGELFFHLSRERVFSEDRARFYGAEIVSALDYLHSEKNVVYRDLKLENLMLDKDGHIKITDFGLCKEGIKDGATMKTFCGTPEYLAPEVLEDNDYGRAVDWWGLGVVMYEMMCGRLPFYNQDHEKLFELILMEEIRFPRTLGPEAKSLLSGLLKKDPKQRLGGGSEDAKEIMQHRFFAGIVWQHVYEKKLSPPFKPQVTSETDTRYFDEEFTAQMITITPPDQDDSMECVDSERRPHFPQFSYSASGTA
in vitro kinase assay with 32P-ATP, detected by autoradiography: Akt1 and Akt3 kinases are able to directly phosphorylate Snail protein

Source: patent US20150119475
